Results published in patent publication US20080050375A1 (Eli Lilly, published 2008).

T1: human TGF-beta 3 (RDI, Cat # RDI-1036/CF) (human, UniProt P10600 301-412)
T1 construct: Bought recombinant protein; also called TGF-β3; TGF-p3
T1 sequence (looked up): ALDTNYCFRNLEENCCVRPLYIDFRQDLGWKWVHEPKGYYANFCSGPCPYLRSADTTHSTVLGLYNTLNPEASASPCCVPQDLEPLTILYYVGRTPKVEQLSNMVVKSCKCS


Columns and labels:
[1] = target: T2, human TGF-beta 1 (R&D Systems, Cat # 240-B/CF) (human, UniProt P01137 279-390); assay: cell-based or functional assay
[2] = target: T2, human TGF-beta 1 (R&D Systems, Cat # …); assay: Biacore SPR, calculated koff/kon
Description: (§1) Alternate methods of measuring kinetic constants are known, for example: affinity of a binding composition for human TGF-beta 1 (R&D Systems, Cat #240-B/CF), TGF-beta 2 (RDI, Cat # RDI-1035) and TGF-beta 3 (RDI, Cat # RDI-1036/CF) is measured using a BlAcore® 2000 instrument. The BIAcore® utilizes the optical properties of surface plasmon resonance to detect alteration in protein concentration of interacting molecules within a dextran biosensor matrix. Except as noted, all reagents and materials are purchased from BIAcore® AB (Upsala, Sweden). All measurements are performed at room temperature. Samples are dissolved in HBS-EP buffer (150 mM sodium chloride, 3 mM EDTA, 0.01% (w/v) surfactant P-20, and 10 mM HEPES, pH7.4). Recombinant Protein A is immobilized on all four flow cells of a CM4 sensor chip at a level of 400-450 response units (RUs) using an amine coupling kit.
(§2) Binding is evaluated using multiple analytical cycles. Each cycle is performed at a flow rate of 50 μL/minute and consists of the following steps: injection of 12 μL of an antibody binding composition at 0.5 μg/mL, injection of 250 μL of TGF-beta 1 (starting at 5 nM and using two-fold serial dilutions to 0.13 nM for each cycle, with two injections for each concentration) followed by either a short (5 minutes) or long (120 minutes) delay for dissociation, and regeneration using two injections of 50VL of 10 mM glycine hydrochloride, pH1.5. Association and dissociation rates for each cycle are determined by fitting of the biosensor data using to a simple association model using ClampXP (Center for Biomolecular Interaction Analysis, Univ. of Utah) to extract the kₒₙ and koff rate constants; the equilibrium binding constant Kd is calculated using the relationship Kd=koff/kₒₙ. Model data for invention compositions are in Table 3 shown below.

[3] = target: T1, human TGF-beta 3 (RDI, Cat # …); assay: ratio of Biacore Kd for TGF-β3 to Kd for TGF-β1
Description: (§3) Affinities of binding composition mAbs for TGF-p3 are determined using BIAcore methods. All measurements are performed at room temperature. Samples are dissolved in HBS-EP buffer (150 mM sodium chloride, 3 mM EDTA, 0.01% (w/v) surfactant P-20, and 10 mM HEPES, pH7.4). Recombinant Protein A is immobilized on four flow cells of a CM4 sensor chip at a level of 400-450 response units (RUs) using an amine coupling kit. Binding is evaluated over multiple analytical cycles. Each cycle is performed at a flow rate of 100 μL/minute consisting of the following steps: injection of 15 μL of an antibody binding composition at 0.5 μg/mL, injection of 250 μL of TGF-β3 (starting at 5 nM and using two-fold serial dilutions to 0.13 nM for each cycle, with two injections for each concentration) followed by a short (5 minutes) delay for dissociation, and regeneration using two injections of 50VL of 10 mM glycine hydrochloride, pH1.5.
(§4) Affinities are determined based upon the equilibrium signal as reached at varying TGF-β3 concentrations by measuring the average signal during the last 10 seconds of the TGF-β3 injections, and then fitting the resulting signals at all of the TGF-β3 concentrations to a simple binding equilibrium model in SCRUBBER (Center for Biomolecular Interaction Analysis, Univ. of Utah). Model data determined for tested human mab composition of the invention of Kd and specificity calculated by dividing the Kd for TGF-β3 binding by the Kd for TGF-β1 binding (herein) is shown below in Table 5.

[4] = target: T2, human TGF-beta 1 (R&D Systems, Cat # …); assay: Biacore SPR, mAb captured on Protein A, TGF-beta 1 injected
Description: as §1, §2

[5] = target: T1, human TGF-beta 3 (RDI, Cat # …); assay: Biacore SPR, equilibrium fit, mAb captured on Protein A, TGF-β3 injected
Description: as §3, §4

[6] = target: T2, human TGF-beta 1 (R&D Systems, Cat # …); assay: Biacore SPR, mAb captured on Protein A, 5 nM ligand injected; stoichiometry from captured signals
Description: (§5) BIAcore methods are used to determine the ability of invention mAb compositions to bind other entities, specifically the latent form of TGF-beta 1 or TGF-beta 3. All measurements are performed at room temperature. Samples are dissolved in HBS-EP buffer (150 mM sodium chloride, 3 mM EDTA, 0.01% (w/v) surfactant P-20, and 10 mM HEPES, pH7.4). Recombinant Protein A is immobilized on all four flow cells of a CM4 sensor chip at a level of 400-450 response units (RUs) using an amine coupling kit.
(§6) Binding is evaluated using multiple analytical cycles. Each cycle is performed at a flow rate of 100 μL/minute consisting of the following steps: injection of 15 μL of an antibody binding composition at 1 μg/mL, injection of 250 μL of either 5 nM TGF-beta 1, 5 nM latent TGF-beta 1, or 5 nM TGF-beta 3 followed by a short delay (5 min) for dissociation, and regeneration using two injections of 50 μL of 10 mM glycine hydrochloride, pH1.5. The amount of signal after capturing first the Mab, and then the ligand, are determined using the instrument control software. Since the signal is proportional to the mass of protein captured, the stoichiometry of the captured ligand is readily calculable (Table 4).

latent TGF-beta 1 = target: T3, latent TGF-beta 1 (UniProt P01137 30-390, limits assumed); assay: as above
T3 construct: Latent complex (pro-peptide with mature TGF-beta 1); also called Latent TGF-β1; latent form of TGF-beta 1
Description: as §5, §6

[7] = target: T1, human TGF-beta 3 (RDI, Cat # …); assay: as above
Description: as §5, §6

[8] = target: T2, human TGF-beta 1 (R&D Systems, Cat # …); assay: calculated from KinExA Kd and kon
Description: (§7) A KinExA 3000 instrument (Sapidyne Inst. Inc.) is used to measure binding kinetics. Briefly, an antigen is covalently coupled to alzactone beads and the binding of a free Fab binding composition of the invention to the beads is detected on the instrument. […] After the incubation, free Fab in each equilibrated sample is determined on the KinExA 3000 according to the manufacturer's instructions. Kd values are determined using KinExA 3000 software.
(§8) To measure kₒₙ, individual Fabs at 2 nM are mixed with 0-240 nM of antigen using the injection method according to the manufacturer's instructions, and the unbound Fab is detected. The resulting data is used to calculate the kₒₙ with KinExA 3000 software. The koff is calculated by using the formula Kd=koff/kₒₙ.

[9] = target: T2, human TGF-beta 1 (R&D Systems, Cat # …); assay: KinExA 3000, equilibrium, Fab in solution
Description: as §7

[10] = target: T2, human TGF-beta 1 (R&D Systems, Cat # …); assay: KinExA 3000, Fab in solution, antigen on beads
Description: as §7, §8

T2 sequence (P01137 279-390 limits assumed): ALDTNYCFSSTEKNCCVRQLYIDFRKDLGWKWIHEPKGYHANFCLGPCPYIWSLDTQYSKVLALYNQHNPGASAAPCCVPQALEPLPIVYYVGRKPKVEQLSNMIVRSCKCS
T3 sequence (P01137 30-390 limits assumed): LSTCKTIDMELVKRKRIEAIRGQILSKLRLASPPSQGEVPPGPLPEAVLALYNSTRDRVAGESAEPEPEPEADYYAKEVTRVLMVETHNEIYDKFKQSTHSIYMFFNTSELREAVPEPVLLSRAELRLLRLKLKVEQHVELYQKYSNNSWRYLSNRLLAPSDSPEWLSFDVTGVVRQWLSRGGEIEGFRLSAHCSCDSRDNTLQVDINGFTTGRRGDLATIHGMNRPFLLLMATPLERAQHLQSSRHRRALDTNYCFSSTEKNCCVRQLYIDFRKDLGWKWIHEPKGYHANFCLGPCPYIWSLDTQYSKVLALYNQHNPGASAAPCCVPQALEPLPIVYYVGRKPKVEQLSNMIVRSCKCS

Binder | Fold Improvement in IC50 relative to mAb2471 (HT-2 cell proliferation assay) [1] [fold] | Kd [2] [pM] | Specificity (Kd, β3/Kd, β1) [3] [fold] | koff [4] [s⁻¹] | kon [4] [M⁻¹ s⁻¹] | Kd [5] [pM] | Stoichiometry of ligand binding [6] | Stoichiometry of ligand binding (latent TGF-beta 1) | Stoichiometry of ligand binding [7] | koff [8] [s⁻¹] | Kd [9] [pM] | kon [10] [M⁻¹ s⁻¹]
mAb 21D1 (antibody, human IgG4 S228P, kappa, V domains shown, Full-length IgG4 antibody; also called LA307-21D1) VH: QVQLVQSGAEVKKPGASVKVSCKASGYTFTDYNIHWVRQAPGQGLEWMGYIYPYDGETGYNQKFKSRVTMTTDTSTSTAYMELRSLRSDDTAVYYCARGYRWFAYWGQGTLVTVSS VL: DIQMTQSPSSLSASVGDRVTITCRASSSVPYMHWFQQKPGKAPKSLIYATSNPAYGVPSRFSGSGSGTDFTLTISSLQPEDFATYYCQQWDLNPPAFGQGTKLEIKR | 107 | < 0.5 | 9800 | < 6e-06 | 1.3e+07 | 4900 | 1.29 | 0.05 | 0.16 | – | – | –
Fab DM4 (Fab, V domains shown, Fab with human constant regions (kappa light chain)) VH: QVQLVQSGAEVKKPGASVKVSCKASGYDFTDYNIHWVRQAPGQGLEWMGYIYPYDGETGYNQKFKSRVTMTTDTSTSTAYMELRSLRSDDTAVYYCARGYRWLAYWGQGTLVTVSS VL: DIQMTQSPSSLSASVGDRVTITCRASSSVSYMHWYQQKPGKAPKPLIYATSNLAYGVPSRFSGSGSGTDFTLTISSLQPEDFATYYCQQWDLNPPAFGQGTKLEIK | – | – | – | – | – | – | – | – | – | 5.1e-06 | 1.2 | 4.2e+06
Fab 21D1 (Fab, V domains shown, Fab with human constant regions (kappa light chain) from M13 expression vectors) VH: QVQLVQSGAEVKKPGASVKVSCKASGYTFTDYNIHWVRQAPGQGLEWMGYIYPYDGETGYNQKFKSRVTMTTDTSTSTAYMELRSLRSDDTAVYYCARGYRWFAYWGQGTLVTVSS VL: DIQMTQSPSSLSASVGDRVTITCRASSSVPYMHWFQQKPGKAPKSLIYATSNPAYGVPSRFSGSGSGTDFTLTISSLQPEDFATYYCQQWDLNPPAFGQGTKLEIK | – | – | – | – | – | – | – | – | – | 3.4e-06 | 0.9 | 4e+06
Fab 23A3 (Fab, V domains shown, Fab with human constant regions (kappa light chain)) VH: QVQLVQSGAEVKKPGASVKVSCKASGYDFTDYNMVWVRQAPGQGLEWMGSIYPYDGETGYNQKFKSRVTMTTDTSTSTAYMELRSLRSDDTAVYYCARGYRAFEYWGQGTLVTVSS VL: DIQMTQSPSSLSASVGDRVTITCRASSSVPYMHWYQQKPGKAPKLLIYATSNPAYGVPSRFSGSGSGTDFTLTISSLQPEDFATYYCQQWDLNPPAFGQGTKLEIK | – | – | – | – | – | – | – | – | – | 1.9e-05 | 4 | 4.8e+06
Fab DM7 (Fab, V domains shown, Fab with human constant regions (kappa light chain)) VH: QVQLVQSGAEVKKPGASVKVSCKASGYDFTDYNMHWVRQAPGQGLEWMGYIYPYDGETGYNQKFKSRVTMTTDTSTSTAYMELRSLRSDDTAVYYCARGYRWLYYWGQGTLVTVSS VL: DIQMTQSPSSLSASVGDRVTITCRASSSVSYMHWYQQKPGKAPKPLIYATSNLAKGVPSRFSGSGSGTDFTLTISSLQPEDFATYYCQQWDLNPPAFGQGTKLEIK | – | – | – | – | – | – | – | – | – | 2.3e-06 | 0.5 | 4.5e+06

Second part, the binder after the results:

Fold Improvement in IC50 relative to mAb2471 (HT-2 cell proliferation assay) [1] [fold] | Kd [2] [pM] | Specificity (Kd, β3/Kd, β1) [3] [fold] | koff [4] [s⁻¹] | kon [4] [M⁻¹ s⁻¹] | Kd [5] [pM] | Stoichiometry of ligand binding [6] | Stoichiometry of ligand binding (latent TGF-beta 1) | Stoichiometry of ligand binding [7] | koff [8] [s⁻¹] | Kd [9] [pM] | kon [10] [M⁻¹ s⁻¹] | Binder
391 | 0.9 | 621 | 1.4e-05 | 1.6e+07 | 530 | 1.55 | 0.03 | – | – | – | – | mAb DM4 (antibody, human IgG4 S228P, kappa, V domains shown, Full-length IgG4 antibody; also called LA307-DM4) VH: QVQLVQSGAEVKKPGASVKVSCKASGYDFTDYNIHWVRQAPGQGLEWMGYIYPYDGETGYNQKFKSRVTMTTDTSTSTAYMELRSLRSDDTAVYYCARGYRWLAYWGQGTLVTVSS VL: DIQMTQSPSSLSASVGDRVTITCRASSSVSYMHWYQQKPGKAPKPLIYATSNLAYGVPSRFSGSGSGTDFTLTISSLQPEDFATYYCQQWDLNPPAFGQGTKLEIKR
234 | 0.8 | 1050 | 1e-05 | 1.9e+07 | 660 | 1.63 | 0.07 | 1.26 | – | – | – | mAb 23A3 (antibody, IgG4, V domains shown) VH: QVQLVQSGAEVKKPGASVKVSCKASGYDFTDYNMVWVRQAPGQGLEWMGSIYPYDGETGYNQKFKSRVTMTTDTSTSTAYMELRSLRSDDTAVYYCARGYRAFEYWGQGTLVTVSS VL: DIQMTQSPSSLSASVGDRVTITCRASSSVPYMHWYQQKPGKAPKLLIYATSNPAYGVPSRFSGSGSGTDFTLTISSLQPEDFATYYCQQWDLNPPAFGQGTKLEIK
